Measurements reported in patent publication US20220098305A1 (Hoffmann-La Roche, published 2022).

T1: human ICOS (human, UniProt Q9Y6W8 21-199)
T1 construct: The cell that carries it is named under assay; also called huICOS; CD278
T1 sequence: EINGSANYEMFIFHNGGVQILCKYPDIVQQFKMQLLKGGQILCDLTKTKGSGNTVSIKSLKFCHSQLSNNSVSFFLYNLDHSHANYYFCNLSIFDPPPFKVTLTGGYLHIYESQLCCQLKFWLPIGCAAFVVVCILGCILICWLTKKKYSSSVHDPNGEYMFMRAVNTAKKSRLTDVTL


Experiments:
human FAP [1] = target: T2, human FAP (human, UniProt Q12884 1-760); test: flow cytometry on NIH/3T3-huFAP clone 19 cells, geometric MFI
T2 construct: also called hu FAP

human FAP [2] = target: T2, human FAP; test: flow cytometry, NIH/3T3-huFAP clone 19 cells
human ICOS [3] = target: T1, human ICOS; test: flow cytometry, SR cells
human ICOS [4] = target: T1, human ICOS; test: flow cytometry on SR cells expressing human ICOS, geometric MFI
[5] = target: T3, recombinant monomeric human ICOS Fc(kih) Avi tag (human, UniProt P0DOX5 223-449 = IgG part, biotin on the Avi tag in the ligand-blocking and the SPR competition assays); test: SPR (Biacore T200, 25 C), antibody captured on anti-rabbit Fc, ICOS Fc(kih) 7.5-600 nM as analyte, 1:1 Langmuir fit
T3 construct: also called recombinant human ICOS; biotinylated human ICOS Fc(kih)
Protocol: (§1) All SPR experiments were performed on a Biacore T200 at 25° C. with HBS-EP as running buffer (0.01 M HEPES pH 7.4, 0.15 M NaCl, 3 mM EDTA, 0.005% Surfactant P20, Biacore, Freiburg/Germany).
(§2) Setup 1: Anti-rabbit Fc antibody (Jackson ImmunoResearch, Cambridgeshire/UK) was directly coupled on a CM5 chip at pH 4.5 using the standard amine coupling kit (Biacore, Freiburg/Germany). The immobilization level was approximately 9000 RU. […] The dissociation was monitored for 720 seconds. Bulk refractive index differences were corrected for by subtracting the response obtained on reference flow cell.

[6] = target: T3, recombinant monomeric human ICOS …; test: SPR competition on human ICOS Fc(kih); second injection 100 nM; competitor (row): Molecule 8
Protocol: (§3) Immobilization levels up to 600 resonance units (RU) were used. […] Bulk refractive index differences were corrected for by subtracting the response obtained on reference flow cell.
(§4) The SPR experiments were performed on a Biacore T200 at 25° C. with HBS-EP as running buffer (0.01 M HEPES pH 7.4, 0.15 M NaCl, 3 mM EDTA, 0.005% Surfactant P20, Biacore, Freiburg/Germany).

human ICOS [7] = target: T1, human ICOS; test: flow cytometry, ICOS+ CHO cells, 120 nM anti-ICOS IgG, no ICOSL
Protocol: (§5) Briefly, cells were harvested, counted, checked for viability and re-suspended at 1 million cells per ml in FACS buffer (PBS with 0.1% BSA). […] Cells were washed again twice with cold PBS 0.1% BSA and then re-incubated and fixed for 20 min at 4° C. in the dark, using 75 μl of 1% PFA in FACS buffer per well. Fluorescence was analyzed by FACS using a FACS Fortessa (Software FACS Diva. Data was analyzed using GraphPadPrism 7.

human ICOS [8] = target: T1, human ICOS; test: flow cytometry, SR cells; remark: listed apart in the source
Protocol: (§6) Briefly, suspension cells were harvested, counted, checked for viability and re-suspended at 1 million cells per ml in FACS buffer (PBS with 0.1% BSA). […] The staining was fixed for 20 min at 4° C. in the dark, using 75 μl of 1% PFA in FACS buffer per well.
(§7) In addition, binding of the above molecules to human SR cells (ATCC® CRL-2262) was performed as described above apart from the following modifications: SR cells were re-suspended at 2 million cells per ml in FACS buffer (BD).
(§8) Fluorescence was analyzed by FACS using a FACS Fortessa (Software FACS Diva). Binding curves and EC50 values were obtained using GraphPadPrism 7.

human ICOS [9] = target: T1, human ICOS; test: flow cytometry, CHO cells expressing human ICOS
Protocol: as §6, §8

[10] = target: T3, recombinant monomeric human ICOS …; test: SPR competition on human ICOS Fc(kih); second injection 100 nM; competitor (row): Molecule 20
Protocol: as §3, §4

human ICOS [11] = target: T1, human ICOS; test: flow cytometry on SR cells expressing human ICOS, PE-labelled secondary antibody, MFI
Protocol: as §6, §7, §8

[12] = target: T3, recombinant monomeric human ICOS …; test: SPR competition on human ICOS Fc(kih); second injection 100 nM; competitor (row): Molecule 14
Protocol: as §3, §4

human ICOS [13] = target: T1, human ICOS; test: flow cytometry, ICOS+ CHO cells, 120 nM anti-ICOS IgG pre-bound, then ICOSL (competitor) 120 nM
Protocol: as §5

human ICOS [14] = target: T1, human ICOS; test: flow cytometry on CHO cells stably expressing human ICOS, PE-labelled secondary antibody, median fluorescence intensity (MFI)
Protocol: as §6, §8

human ICOS [15] = target: T1, human ICOS; test: flow cytometry, MFI(ICOSL+anti-ICOS)/MFI(anti-ICOS only)*100 at 120 nM; competitor ICOSL
Protocol: as §5

human ICOS [16] = target: T1, human ICOS; test: cell-based or functional assay
[17] = target: T3, recombinant monomeric human ICOS …; test: SPR competition on human ICOS Fc(kih); second injection 100 nM; competitor (row): Molecule 18
Protocol: as §3, §4

[18] = target: T3, recombinant monomeric human ICOS …; test: SPR (Biacore T200, 25 C), antibody captured on anti-mouse IgG, ICOS Fc(kih) 7.5-600 nM as analyte, 1:1 Langmuir fit
Protocol: as §1
as §2, with “2: Anti-mouse IgG” for “1: Anti-rabbit Fc”, “(GE Healthcare, Chicago/US)” for “(Jackson ImmunoResearch, Cambridgeshire/UK)”, “5.0” for “4.5”, “5000” for “9000”

Binder	Kd [5]	koff [5]	kon [5]	t1/2 [5]	binding of the second injection (0 = no binding; 1 = binding) [6]	MFI (A488), IgG only (human ICOS [7])	EC50 (human ICOS [8])	EC50 (human ICOS [9])	binding of the second injection (0 = no binding; 1 = binding) [10]	EC50 (read off the curve) (human ICOS [11])	binding of the second injection (0 = no binding; 1 = binding) [12]	MFI (A488), IgG + ICOSL (human ICOS [13])	EC50 (read off the curve) (human ICOS [14])	Relative Binding (%) (human ICOS [15])	EC50 of activation of Jurkat-NFAT reporter cell line (luminescence) (human ICOS [16])	binding of the second injection (0 = no binding; 1 = binding) [17]	further results
Molecule 40, bispecific 2+1 anti-ICOS (009)/anti-FAP (4B9) huIgG1 P329GLALA kih (bispecific antibody) heavy 1: EVRLDETGGGVVQPGRPMELSCVASGFTFSDYWMNWVRQSPEKGLEWVAQIRNKPYNYETYYSDSVKGRFTISRDDSKSRVYLQMNNLRAEDMGIYYCTWPRLRSSDWHFDVWGAGTTVTVSSASTKGPSVFPLAPSSKSTSGGTAALGCLVKDYFPEPVTVSWNSGALTSGVHTFPAVLQSSGLYSLSSVVTVPSSSLGTQTYICNVNHKPSNTKVDKKVEPKSCDKTHTCPPCPAPEAAGGPSVFLFPPKPKDTLMISRTPEVTCVVVDVSHEDPEVKFNWYVDGVEVHNAKTKPREEQYNSTYRVVSVLTVLHQDWLNGKEYKCKVSNKALGAPIEKTISKAKGQPREPQVCTLPPSRDELTKNQVSLSCAVKGFYPSDIAVEWESNGQPENNYKTTPPVLDSDGSFFLVSKLTVDKSRWQQGNVFSCSVMHEALHNHYTQKSLSLSPGGGGGSGGGGSGGGGSGGGGSEIVLTQSPGTLSLSPGERATLSCRASQSVTSSYLAWYQQKPGQAPRLLINVGSRRATGIPDRFSGSGSGTDFTLTISRLEPEDFAVYYCQQGIMLPPTFGQGTKVEIK heavy 2: not shown light: AIQMTQSPSSLSASLGGEVTITCKASQDINKNIAWYQHKPGRGPRLLIWYTSTLQTGIPSRFSGSGSGRDYSFTISNLEPEDFATYYCLQFDNLYTFGSGTKLEIRRTVAAPSVFIFPPSDEQLKSGTASVVCLLNNFYPREAKVQWKVDNALQSGNSQESVTEQDSKDSTYSLSSTLTLSKADYEKHKVYACEVTHQGLSSPVTKSFNRGEC																	EC50 (read off the curve) (human FAP [1]): ~4 nM; EC50 (human FAP [2]): 0.00385 nM; EC50 (human ICOS [3]): 0.00174 nM; EC50 (read off the curve) (human ICOS [4]): ~2 nM
Molecule 8 (rbIgG of 1167) (antibody, V domains shown, Rabbit IgG format, from transgenic rabbit; also called ICOS (1167); clone 1167) VH: EVRLLESGGGLVQPGGSLRLSCAASGFTFNTYAVHWVRQAPGKGLEWVSGIGGSGVRTYYADSVKGRLTISRDNSKNTLYLQMNSLRAEDTAIYFCAKDIYVADFTGYAFDIWGQGTMVTVSS VL: DIQMTQSPSSVSASVGDRVTITCRASQGINNFLAWYQQKPGKAPKLLIYDASSLQSGVPSRFAGSGSGTDFTLTISSLQPEDFATYYCQQYNFYPLTFGGGTMVEIKR	76 nM	0.0061 s⁻¹	81000 M⁻¹ s⁻¹	0.0317 h		7800 MFI	0.00113 nM	0.00069 nM	0	~1 nM	0	7660 MFI	~0.7 nM	98.2%	0.13 nM	1	
Molecule 14 (muIgG of 009) (antibody, V domains shown, Mouse IgG purified from hybridoma; also called ICOS (009); clone 009) VH: EVRLDETGGGVVQPGRPMELSCVASGFTFSDYWMNWVRQSPEKGLEWVAQIRNKPYNYETYYSDSVKGRFTISRDDSKSRVYLQMNNLRAEDMGIYYCTWPRLRSSDWHFDVWGAGTTVTVSS VL: AIQMTQSPSSLSASLGGEVTITCKASQDINKNIAWYQHKPGRGPRLLIWYTSTLQTGIPSRFSGSGSGRDYSFTISNLEPEDFATYYCLQFDNLYTFGSGTKLEIR					0	7190 MFI	0.0014 nM	0.00297 nM	0	~1 nM		7000 MFI	~3 nM	97.3%	0.08 nM	1	Kd [18]: 2 nM; koff [18]: 0.00014 s⁻¹; kon [18]: 61000 M⁻¹ s⁻¹; t1/2 [18]: 1.36 h

Now from value to binder, other results behind:

Kd [5]	koff [5]	kon [5]	t1/2 [5]	binding of the second injection (0 = no binding; 1 = binding) [6]	MFI (A488), IgG only (human ICOS [7])	EC50 (human ICOS [8])	EC50 (human ICOS [9])	binding of the second injection (0 = no binding; 1 = binding) [10]	EC50 (read off the curve) (human ICOS [11])	binding of the second injection (0 = no binding; 1 = binding) [12]	MFI (A488), IgG + ICOSL (human ICOS [13])	EC50 (read off the curve) (human ICOS [14])	Relative Binding (%) (human ICOS [15])	EC50 of activation of Jurkat-NFAT reporter cell line (luminescence) (human ICOS [16])	binding of the second injection (0 = no binding; 1 = binding) [17]	Binder	further results
0.7 nM	0.00026 s⁻¹	400000 M⁻¹ s⁻¹	0.728 h	1	6320 MFI	0.00216 nM	0.00192 nM	1	~2 nM	1	6210 MFI	~2 nM	98.2%	0.09 nM		Molecule 18 (rbIgG of 1138) (antibody, V domains shown, Rabbit IgG format; also called ICOS (1138); clone 1138) VH: QSLEESGGDLVKPGASLTLTCTASGFDLSSYYYMCWVRQAPGKGLEWIACIYADIYGGTTHYASWAKGRFTISKTSSTTVTLQMTSLTAADTATYFCAREDGSRYGGSGYYNLWGPGTLVTVSS VL: ALVMTQTPSSVSAAVGGTVTINCQASQNIYSNLAWYQQKPGQPPKLLIYAASYLTSGVSSRFKGSGAGTQFTLTISGVECADAATYYCQQGHTTDNIDNAFGGGTEVVVKG	
0.1 nM	2.3e-05 s⁻¹	170000 M⁻¹ s⁻¹	8.3 h	0	6320 MFI	0.0004 nM	0.0003 nM		~0.4 nM	0	6340 MFI	~0.3 nM	100%	0.02 nM	1	Molecule 20 (rbIgG of 1143) (antibody, V domains shown, Rabbit IgG format; also called ICOS (1143); clone 1143) VH: QSLEESGGDLVKPGASLTLTCKASGFDFSSAYDMCWVRQAPGKGLEWIGCVYYGDGITYYATWAKGRFTISKTSSTTVPLQMTSLTAADTATYFCARGAFLGSSYYLSLWGQGTLVTVSS VL: AIDMTQTPASVEAAVGGTVTINCQASENIYNWLAWYQQKPGQPPKLLIYDASKLASGVPSRFSASGSGTQFTLTISAVECADAATYYCQQAYTYGNIDNAFGGGTEVVVSG	
